Where a SMILES comes first, the peptide text is derived from it. Bridges are numbered along the chain shown (N, C = ends). [ ]: non-standard residue; d: D form. The star is where a group is joined. ξ: configuration not given here. X1 = CC[C@@]1(OC(=O)OCCSSC[C@H](NC(C)=O)C(=O)*)C(=O)OCc2c1cc1n(c2=O)Cc2cc3ccccc3nc2-1; S(CH2)2OCO2(CPT-20-yl) = CC[C@@]1(OC(=O)OCCS*)C(=O)OCc2c1cc1n(c2=O)Cc2cc3ccccc3nc2-1; ξR = N=C(N)NCCCC(N)C(=O)O

The nature of series [1]: GSH responsive drug release of CPT prodrugs. The note with it: presence of GSH, within 2 hours. The format is in vitro ADME. As for the experimental part:
Briefly, 20 mM glutathione (GSH) and 400 μM diCPT-PLGLAG-iRGD or diCPT-iRGD stock solutions were prepared in water or PBS (pH 7.4). Equal volumes of GSH and diCPT-PLGLAG-iRGD or diCPT-iRGD solutions were then mixed to reach a final GSH concentration of 10 mM and the mixtures were incubated at 37° C. Samples were then taken at predetermined time points (0, 0.5, 1, 2, 4, 8, 12 and 24 h) and quantified using HPLC.

Series [2] has as its system GL-261 cells. Briefly: Cytotoxicity assay (MTT or WST-1). To be noted: 48 h incubation. The series is classed as cell-based. Here is the method: GL-261 cells (2.5×10^3 cells/well) were incubated in a 96-well plate overnight. The cells were then treated with varying concentrations of CPT or diCPT-PLGLAG-iRGD or diCPT-iRGD solutions, with untreated cells used as a control. After 48 h incubation, cell viability was tested using an MTT or WST-1 assay. The percentage of cell viability was calculated as follows: Cell Viability (%)=A570sample/A570control×100%. IC50 values of the drug formulations were analyzed using Graph Pad Prism 5.
In general terms: Formazan colour is commonly taken as a measure of viable cells.

The test system of series [3] is GL-261 tumor spheroids. Briefly: Inhibition of tumor spheroids. The series is classed as cell-based. The note with it: CPT concentration of 5 μM. Here is the method:
GL-261 cells were seeded at a density of 1×10^4 cells/well into agarose coated 48-well plates. After the culture plates were incubated at 37° C. for 7 days, the spheroids were treated with free CPT, NT and P-NT at the CPT concentration of 5 μM. The tumor spheroids were photographed every two days. Growth inhibition was evaluated by measuring the size of the tumor spheroids. Volume of the tumor spheroids was calculated using the equation […], with dmax dmin representing the maximum and minimum diameter of the spheroid, respectively.

Series [4] is described as follows: In vivo hydrogel formation and degradation after subcutaneous injection. On the set-up: species or system C57BL/6 mice. To be noted: within 45 days. As for the experimental part: 100 μl of 7.2 mM P-NT solution or diCPT-iRGD NT solution (5.75 mM, 100 μL) was injected into the back of C57BL/6 mice. The mice were then sacrificed at predetermined time points (1 hour, 5, 15, 30 and 45 days). The remaining hydrogel in each mouse was photographed and the amount of drug that persisted within the hydrogel was determined using HPLC.

For series [5], the system named is GL-261 tumors. The experiment in a line: Tumor tissue penetration, fluorescence imaging of tumor sections (NT vs NT-Sham). The note with it: day 3 after intratumoral injection. The series is classed as in vivo, GL-261 tumor-bearing mice. An excerpt: FIG. 39 is fluorescence imaging of tumor sections to specifically analyze the information from tumor areas of GL-261 tumor-bearing mice that intratumoral injected with NT-Sham (NTs formed from diCPT-iRGRD) or NT. The images were obtained on day 3 day after treatment. Blue: CPT (Excitation at 365 nm), Red: DRAQS™ stained nuclei, scale bar: 500 μm.

The nature of series [6]: Intratumoral retention of Cy7-labeled CDA (IVIS). The note with it: intratumoral injection. The format is in vivo, GL-261 tumor-bearing mice.
Procedure: At predetermined time points, fluorescence images were recorded by an IVIS Spectrum imaging system (Perkin Elmer).
For series [7], the target named is diCPT-PLGLAG-iRGD.

Turning to `CC[C@@]1(OC(=O)OCCSSC[C@H](NC(C)=O)C(=O)NCCCC[C@H](NC(=O)[C@H](CSSCCOC(=O)O[C@]2(CC)C(=O)OCc3c2cc2n(c3=O)Cc3cc4ccccc4nc3-2)NC(C)=O)C(=O)N[C@H]2CSSC[C@@H](C(N)=O)NC(=O)[C@H](CC(=O)O)NC(=O)[C@@H]3CCCN3C(=O)CNC(=O)C(CCCNC(=N)N)NC(=O)[C@H](CC(=O)O)NC(=O)CNC(=O)[C@H](CCCNC(=N)N)NC2=O)C(=O)OCc2c1cc1n(c2=O)Cc2cc3ccccc3nc2-1` (stereo partly shown) [diCPT-iRGD] (Ac-C(S(CH2)2OCO2(CPT-20-yl))K(X1)CRGD[ξR]GPDC-NH2; disulfide 3-11), the “free CPT released” value in series [1] is listed as about 100%. In series [2], the “cytotoxicity against GL-261 brain tumor cells” value was “potent cytotoxicity”. Moreover, the “cytotoxicity against 3D tumor spheroids” value in series [3] is listed as “potent cytotoxicity”. Further, the hydrogel degraded entry in series [4] was “approximately 75%”. Besides, the “CPT fluorescence at the tumor periphery” value in series [5] is “distinct CPT fluorescence can be observed throughout the tumor and even at the tumor periphery”.

For `Nc1ncnc2c1ncn2[C@@H]1O[C@@H]2COP(O)(=S)O[C@@H]3C(O)[C@@H](COP(O)(=S)O[C@H]2[C@H]1O)O[C@H]3n1cnc2c(N)ncnc21` (stereo partly shown) [free CDA, 2′3′-c-di-AM(PS)2 (Rp,Rp)], the “CDA fluorescence signal in tumors” value in series [6] is “virtually no fluorescence signal observed five days after injection”.

B1: Human MMP2 recombinant protein (protein)
chain: APSPIIKFPGDVAPKTDKELAVQYLNTFYGCPKESCNLFVLKDTLKKMQKFFGLPQTGDLDQNTIETMRKPRCGNPDVANYNFFPRKPKWDKNQITYRIIGYTPDLDPETVDDAFARAFQVWSDVTPLRFSRIHDGEADIMINFGRWEHGDGYPFDGKDGLLAHAFAPGTGVGGDSHFDDDELWTLGEGQVVRVKYGNADGEYCKFPFLFNGKEYNSCTDTGRSDGFLWCSTTYNFEKDGKYGFCPHEALFTMGGNAEGQPCKFPFRFQGTSYDSCTTEGRTDGYRWCGTTEDYDRDKKYGFCPETAMSTVGGNSEGAPCVFPFTFLGNKYESCTSAGRSDGKMWCATTANYDDDRKWGFCPDQGYSLFLVAAHEFGHAMGLEHSQDPGALMAPIYTYTKNFRLSQDDIKGIQELYGASPDIDLGTGPTPTLGPVTPEICKQDIVFDGIAQIRGEIFFFKDRFIWRTVTPRDKPMGPLLVATFWPELPEKIDAVYEAPQEEKAVFFAGNEYWIYSASTLERGYPKPLTSLGLPPDVQRVDAAFNWSKNKKTYIFAGDKFWRYNEVKKKMDPGFPKLIADAWNAIPDNLDAVVDLQGGGHSYFFKGAYYLKLENQSLKSVKFGSIKSDWLGC
On to B1, for which, in series [7], the “degradation of diCPT-PLGLAG-iRGD by MMP-2 (HPLC, 200 uM conjugate, 2 ug/ml MMP-2, 37 C)” value was determined as 54% cleaved after 8 hours.
